Assay [1] deals with T1, H-exIL-23R, recombinant extracellular part of the human IL-23 receptor with N-terminal His6 tag (human, UniProt Q5VWK5 24-350).
T1 sequence (looked up): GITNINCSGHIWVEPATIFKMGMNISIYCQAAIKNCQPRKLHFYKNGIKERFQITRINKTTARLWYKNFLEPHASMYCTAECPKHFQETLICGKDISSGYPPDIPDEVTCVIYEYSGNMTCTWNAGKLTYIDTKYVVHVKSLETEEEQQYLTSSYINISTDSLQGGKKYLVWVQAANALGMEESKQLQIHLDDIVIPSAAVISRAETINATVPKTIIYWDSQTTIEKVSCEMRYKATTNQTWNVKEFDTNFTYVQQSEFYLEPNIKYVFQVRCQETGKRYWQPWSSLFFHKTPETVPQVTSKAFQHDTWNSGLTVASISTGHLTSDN
The assay is described as follows: ELISA. (In general: In an ELISA, binding on a coated surface is turned into a signal by an enzyme label.)

The target in assay [2] is T2, recombinant human IL-23R-IgG chimera (human, UniProt Q5VWK5 24-355, glycosylated).
T2 sequence (looked up): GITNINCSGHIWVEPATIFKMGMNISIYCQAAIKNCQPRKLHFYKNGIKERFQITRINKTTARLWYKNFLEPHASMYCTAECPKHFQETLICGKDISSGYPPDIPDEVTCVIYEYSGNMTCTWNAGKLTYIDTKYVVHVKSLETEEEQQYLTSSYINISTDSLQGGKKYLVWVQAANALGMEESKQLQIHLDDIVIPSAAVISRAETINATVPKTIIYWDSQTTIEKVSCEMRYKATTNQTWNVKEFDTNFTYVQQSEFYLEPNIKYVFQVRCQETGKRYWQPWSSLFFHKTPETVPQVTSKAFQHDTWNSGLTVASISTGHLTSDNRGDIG
The assay is described as follows: ELISA.

Assay [3] addresses T2, recombinant human IL-23R-IgG chimera. The assay is described as follows: SPR. (In general: SPR reads the build-up and loss of mass on a sensor chip optically.)

B1: His6-REX128-TolA-AVI (designed binder)
chain: His6-LAEAKVLANRELDKYGVSDRYKNSINRALPVAAVKWALDLILAWLP-{TolA-AviTag(biotin)}
modifications: not fully specified
As to B1, the binding result in assay [1] is “binds”.

B2: DH-MBP-p19, double-His6-MBP-p19 fusion protein with a C-terminal 40 aa solubility-supporting prolongation (ligand, human)
chain: RAVPGGSSPAWTQCQQLSQKLCTLAWSAHPLVGHMDLREEGDEETTNDVPHIQCGDGCDPQGLRDNSQFCLQRIHQGLIFYEKLLGSDIFTGEPSLLPDSPVGQLHASLLGLSQLLQPEGHHWETQQIPSLSPSQPWQRLLLRFKILRSLQAFVAVAARVFAHGAATLSPLEKKTCTSRASSTTTTTTEIRLLTKPERKLSWLLPPLSNN
Consider B2, for which, in assay [2], the binding result was “binds”.

B3: His6-REX125-TolA-AVI (designed binder)
chain: His6-LAEAKVLANRELDKYGVSDHYKNWINPARRVRPVKWLIDAILAALP-{TolA-AviTag(biotin)}
modifications: not fully specified
Usually Kd stands for the concentration at which binding is half-saturated. For the molecule B3, the Kd in assay [3] was around 1 nM.

B4: His6-REX009-TolA-AVI (designed binder)
chain: His6-LAEAKVLANRELDKYGVSDYYKNRINPACHVLSVKSNIDWILASLP-{TolA-AviTag(biotin)}
modifications: not fully specified
With B4, the Kd in assay [3] came to 1.3 nM.

Values taken from paper PMC4285857 (Proteins, 2013).
